# Results as given in publication PMC8857484.
# Key:
# Test in all cases: cross-linking; in vivo cysteine cross-linking with 180 μM aldrithiol-4, 20 min, 37 °C, in SUKO HEK-293T cells expressing single-cysteine STIM1 with or without UNC93B1-FLAG-MYC, treated or not with 0.5 μM thapsigargin for 5 min; non-reducing electrophoresis, blot with anti-STIM1
# [1] = target: STIM1-A230C (cysteine-less STIM1 with a single cysteine at residue 230, TM region) (UniProt Q13586)
# [2] = target: STIM1-L251C (cysteine-less STIM1 with a single cysteine at residue 251, CC1 domain) (UniProt Q13586)
# [3] = target: STIM1-M241C (cysteine-less STIM1 with a single cysteine at residue 241, juxtamembrane region) (UniProt Q13586)
substance,measurement,setting,value
"STIM1-A230C (cysteine-less STIM1 with a single cysteine at residue 230, TM region) (from UniProt Q13586 23-685) (natural protein)",stoichiometry N,[1],2
"STIM1-L251C (cysteine-less STIM1 with a single cysteine at residue 251, CC1 domain) (from UniProt Q13586 23-685) (natural protein)",stoichiometry N,[2],2
"STIM1-M241C (cysteine-less STIM1 with a single cysteine at residue 241, juxtamembrane region) (from UniProt Q13586 23-685) (natural protein)",stoichiometry N,[3],2
